Test results reported in the Human Domainome abundance scans (Beltran et al. 2025).
± gives the uncertainty stated by the source.

B1: Pituitary-specific positive transcription factor 1, residues 130 to 198; numbered along this chain, P28069 (parent)
chain: RELEKFANEFKVRRIKLGYTQTNVGEALAAVHGSEFSQTTICRFENLQLSFKNACKLKAILSKWLEEAE

Variants of: B1
Assay: abundance fitness (aPCA) (normalised: wild type 0, dead -1); higher = more abundant; growth selection in yeast, the domain comes from the species named
Conditions: Homo sapiens

Row | Variant | abundance fitness
1 | K63P | -0.303 ± 0.082
2 | L61D | -0.788 ± 0.28
3 | L61F | -0.536 ± 0.12
4 | L61M | -0.491 ± 0.097
5 | S34Q | 0.057 ± 0.057
6 | S34C | -0.431 ± 0.24
7 | E45W | -0.762 ± 0.12
8 | E45R | -0.987 ± 0.18
9 | E45F | -0.878 ± 0.17
10 | E45V | -0.809 ± 0.15
11 | E45D | -0.991 ± 0.31
12 | E45T | -0.821 ± 0.13
13 | K16C | -0.121 ± 0.17
14 | K16L | -0.468 ± 0.097
15 | K16Y | -0.64 ± 0.12
16 | K16H | -0.786 ± 0.37
17 | K56P | -0.626 ± 0.082
18 | K56C | -0.505 ± 0.098
19 | K56W | -0.533 ± 0.085
20 | K56F | -0.554 ± 0.12
21 | K56L | -0.466 ± 0.077

Row | Variant | abundance fitness
22 | K56T | -0.307 ± 0.067
23 | V24S | -0.681 ± 0.16
24 | V24K | -0.846 ± 0.47
25 | V24G | -0.753 ± 0.18
26 | E4K | -0.084 ± 0.08
27 | E4R | -0.229 ± 0.058
28 | N53P | -0.115 ± 0.055
29 | N53C | -0.013 ± 0.086
30 | N53A | 0.107 ± 0.049
31 | N53R | 0.206 ± 0.055
32 | N53I | -0.027 ± 0.092
33 | R43V | -0.966 ± 0.24
34 | R43F | -0.289 ± 0.42
35 | K58G | -0.652 ± 0.095
36 | K58D | -0.652 ± 0.26
37 | K58Y | -0.511 ± 0.098
38 | I60H | -0.437 ± 0.17
39 | I60K | -0.262 ± 0.1
40 | I60L | -0.135 ± 0.053
41 | I60N | -0.357 ± 0.14
42 | I60P | -0.2 ± 0.08

Row | Variant | abundance fitness
43 | I60T | -0.51 ± 0.08
44 | K11I | -0.458 ± 0.15
45 | L47H | 0.164 ± 0.11
46 | L47E | -0.635 ± 0.16
47 | L47T | -0.667 ± 0.23
48 | N23I | -0.539 ± 0.17
49 | N23F | 0.145 ± 0.095
50 | N23S | 0.086 ± 0.053
51 | N23Y | 0.008 ± 0.1
52 | E66N | -0.373 ± 0.14
53 | E66F | -0.242 ± 0.11
54 | E69S | -0.4 ± 0.14
55 | E69D | -0.28 ± 0.16
56 | A68T | -0.05 ± 0.13
57 | A68F | -0.747 ± 0.23
58 | R14M | -0.645 ± 0.19
59 | R14V | -0.712 ± 0.2
60 | R14D | -0.725 ± 0.42
61 | R14C | -0.79 ± 0.32
62 | L3G | -0.571 ± 0.11
63 | L3M | -0.469 ± 0.13

Row | Variant | abundance fitness
64 | C55K | -0.153 ± 0.1
65 | C55D | 0.188 ± 0.34
66 | T22I | -0.525 ± 0.11
67 | E9F | -0.239 ± 0.23
68 | E9Y | -0.72 ± 0.16
69 | E9T | -0.398 ± 0.077
70 | E9A | -0.156 ± 0.076
71 | A54G | -0.295 ± 0.18
72 | V12D | -0.175 ± 0.12
73 | V12R | -0.101 ± 0.12
74 | V12C | -0.183 ± 0.11
75 | V12H | 0.095 ± 0.12
76 | T39G | -0.13 ± 0.044
77 | T39I | -0.312 ± 0.1
78 | N46H | -0.545 ± 0.12
79 | N46K | -0.266 ± 0.11
80 | A30F | -0.726 ± 0.16
81 | A30C | -0.127 ± 0.1
82 | L49G | -0.632 ± 0.11
83 | F6E | -0.791 ± 0.14
84 | F6A | -0.666 ± 0.11
